Experimental data from patent US20240026407A1, “MODIFICATION OF SAPONINS” (GLAXOSMITHKLINE BIOLOGICALS SA, priority 2020, published 2024).

Columns and labels:
Format in all cases: biochemical, Quillaja saponaria
[1] = Experiment 4-1: screening of glucosidases for deglycosylation with purified QS-18 (0.04 mg/ml) at pH 7.5 and room temperature; settings: pH 7.5, room temperature, 20 h, clarified E. coli lysate, QS-18 2150 to QS-21 1988 by LCMS/MS
Protocol: Nucleotide sequences were sub-cloned into pET24b+ for expression. 10 uL of E. coli cells (One Shot® BL21(DE3) chemically competent E. coli) were transferred to each well of a 96 well PCR plate (prechilled on ice). 10 uL autoclaved water was added to the DNA, resuspended by pipetting, and 1 uL of plasmid DNA (15-30 ng) was transferred to the competent cells. Immediately after addition, the resulting mixture was mixed by pipetting. Cells were heat shocked by placing the plate in a thermal cycler at 42° C. for 30 seconds then transferred directly to an ice bath for 2 min. 100 uL sterile Lysogeny Broth (LB) medium was added to each well containing transformed cells. The content of each plate was transferred into a 96-deep well plate pre-aliquoted with 400 uL LB and the plate was incubated at 37° C. with shaking and 85% humidity for 1 hour. After outgrowth, 500 uL of sterile LB containing 100 ug/mL kanamycin was added to the plates containing cells and plates incubated at 37° C. with shaking overnight (18 hours) with humidity control (85%).
1000 mLs of Overnight Express Media was supplemented with 1 mL kanamycin 50 mg/mL and 20 mL of 50% v/v glycerol added (50 ug/mL kanamycin final and 1% glycerol). 96-Well Assay Block 2 mL plates were aliquoted with 380 uL of media per well. Pre-inoculum (20 uL) from transformation plates was added. The plates were sealed appropriately and incubated at 37° C. at 300 with shaking for 2 h. After 2 h the temperature was lowered to 20° C. and incubation continued for 20 h.
The liquid cultures were centrifuged for 10 minutes at 4° C. The supernatant was discarded, plates blotted on an absorbent material to remove residue and the plates frozen at −80° C.
Lysis buffer was prepared according to the following protocol: • 1. Polymyxin B sulphate (0.5 mg/mL) was suspended in 100 mM potassium phosphate pH 7.5 • 2. The mixture was sonicated until polymyxin B sulphate had dissolved • 3. Lysozyme (1 mg/mL) and benzonase (0.1 uL/mL lysis buffer) were added
2 copies of each cell pellet plate were removed from −80 degC freezer and allowed to thaw. 200 uL of lysis buffer was added to each well of one copy of the cell pellet plates. Plates were shaken at room temperature for 10 mins. 190 uL of cell pellet/lysis buffer was transferred to a corresponding fresh cell pellet plate. These plates were incubated at room temperature with shaking for 2 hours. Lysate was clarified by centrifugation (10 min, 4 degC).
QS-18 was obtained by analogous methods to Example 3, collecting a QS-18 containing phenyl fraction following phenyl treatment (presence of m/z corresponding to key components was confirmed by MS and the phenyl fraction then used without further treatment). QS-18 solution was prepared by diluting aqueous QS-18 (ca 1 mg/mL) with 100 mM potassium phosphate pH 7.5 to 0.2 mg/ml. 40 uL clarified lysate was transferred into fresh 96 well PCR plates. 10 uL QS-18 solution added to each well of lysate to a final concentration of 0.04 mg/ml. Incubated at room temperature with shaking for 20 h. Quenched with 50 uL MeCN and shaken at room temperature for 10 mins. Samples were analysed by LC-MS/MS using a Waters Acquity H class coupled to a Waters Xevo Tandem Quadrupole (TQD) Mass Spectrometer.
Enzyme activity was calculated as: […]
Candidate enzymes with % conversion >0.72%, i.e. >3 S.D. above negative control, were considered to be positive hits and are listed below in Table 7. Sample results are shown in FIG. 10 for a QS-21 standard, FIG. 11 for negative control and FIG. 12 for treatment with the glucosidase of SEQ ID No. 262.

[2] = Experiment 4-4: screening of glucosidases for deglycosylation of QS-18 in crude bark extract (1 in 20 dilution) to QS-21; settings: CBE 1 in 20 dilution, pH 6, 25 degC, 18 hours; % conversion of Middle Peak by UV HPLC
Protocol: Lysates were prepared as in Experiment 4-2.
Crude bark extract (CBE) was adjusted to pH 6 by dropwise addition of 2M NaOH with stirring. 25 uL of clarified lysate was transferred to a reaction plate, 22.5 ul of 100 mM potassium phosphate buffer pH 6 was added, 2.5 ul CBE at pH 6 was added. Reaction plates were sealed, incubated at 25 degC with shaking for 18 hours, then quenched by addition of 50 uL acetonitrile (MeCN). Quenched reaction plates were re-sealed and incubated at 20 degC with shaking for 10 min. The reaction plates were centrifuged (10 min, 4 degC) and analysed by UV HPLC with the method below:
Three key peaks of interest are apparent using this chromatography: Left Peak (retention time approximately 2.30-2.35 min) comprising mainly QS-17 family components; Middle Peak (retention time approximately 2.37-2.42 min) comprising mainly QS-18 family components and desglucosyl-QS-17 family components; and Right Peak (retention time approximately 2.44-2.50 min) comprising mainly QS-21 family components. Peak identity was supported by MS/MS.
Enzyme activity is calculated as the % conversion of the Middle Peak present in the crude bark extract: […]

[3] = Experiment 4-2: screening of glucosidases for deglycosylation with purified QS-18 (1 mg/ml) at pH 6 and 30 deg C; settings: pH 6, 30 degC, 18 hrs, clarified lysate, LCMS/MS
Protocol: Lysates were prepared in an identical manner to Experiment 4-1 above, except the lysis buffer was prepared in 100 mM potassium phosphate buffer pH 6. QS-18 solution was prepared by dissolving QS-18 in 100 mM potassium phosphate buffer pH 6 (2 mg/mL).
12 uL clarified lysate was transferred into fresh 96 well PCR plates. 12 uL QS-18 solution was added (1 mg/ml final concentration), plates sealed and incubated overnight (30° C.) for 18 hrs. After quenching with 25 uL MeCN and shaking for 10 mins (RT), samples were analysed using the LC-MS/MS protocol described in Experiment 4-1 and enzyme activity determined in an analogous manner.

Molecule	Expt 4-1 % conv [1] [%]	Expt 4-4 % conv [2] [%]	Expt 4-2 % conv [3] [%]
302 (protein, listed as Rhodococcus sp.) MTTRPDLTLEQQAALLSGHDFWSTEAIEEAGIPSVVLTDGPHGVRYQSGDSDHLGLHASLPATCFPLAVAVGSSWDRSVAEEVGRAVGREARALGVHVVLGPGVNIKRSPLCGRNFEYYSEDPLLSGVLGAAHVRGLQSVGVGACVKHFAANNQETDRMRVSADVDDRTLREIYLPAFERVVAEARPAAVMCSYNKVNGVSAAENRWLLTEVLREQWGFAGVVVSDWGAVADRVAGVTAGLDLEMPGSGGGTDRQVVDAVRDGRLDPRLVEASAHRVLALSDLVRPAAGDLDLDGQHALARRLAADCAVLLKNADGVLPLRRGQHVAVLGSFATTPRFQGGGSSHIAPTRVDPALDAVRALAAAHGLTVSAADGFPLGADGDARALLDEAVRVAAAADVAVVFAGLTEREESEGFDRDTLDLPPVQVALVRAVARAAPRTVVVLAHGGVVSLEGWHDEVDAILDGWLLGQAGGSAIADLLLGVATPSGHLAETVPLRLEDTPSYLNFPGEQGHVRYGEGVMVGYRGYETLRRAVRYPFGHGLSYTTFVTESLDVALGGDGTVAVRVRVRNAGDRAGKHVVQMYVATDAGPVRRPVRELRAFEKIELAPGEARDVELTLERRAFAYWDVELDDWVVAPGEYAIQVCADAATVLEARTVTLAGDVVSRPLSMESTVGEWFSHPTVGPAFLEVLAGATGSAPTPDPQEHAGLLRMVESIRMAQFLTFLPIPVPQEKLDELLALGGTVANSATDAAAGNRDHPAPTPPGQPGGP	17.2	<3	2.1
324 (protein, listed as Kluyveromyces marxianus) MSKFDVEQLLSELNQDEKISLLSAVDFWHTKKIERLGIPAVRVSDGPNGIRGTKFFDGVPSGCFPNGTGLASTFDRDLLETAGKLMAKESIAKNAAVILGPTTNMQRGPLGGRGFESFSEDPYLAGMATSSVVKGMQGEGIAATVKHFVCNDLEDQRFSSNSIVSERALREIYLEPFRLAVKHANPVCIMTAYNKVNGEHCSQSKKLLIDILRDEWKWDGMLMSDWFGTYTTAAAIKNGLDIEFPGPTRWRTRALVSHSLNSREQITTEDVDDRVRQVLKMIKFVVDNLEKTGIVENGPESTSNNTKETSDLLRKIAADSIVLLKNKNNILPLKKEDNIIVIGPNAKAKTSSGGGSASMNSYYVVSPYEGIVNKLGKEVDYTVGAYSHKSIGGLAESSLIDAAKPADAENSGLIAKFYSNPVEERSDDEEPFHVTKVNRSNVHLFDFKHEKVDPKNPYFFVTLTGQYVPQEDGDYIFSLQVYGSGLFYLNDELIIDQKHNQERGSFCFGAGTKERTKKLTLKKGQVYNVRVEYGSGPTSGLVGEFGAGGFQAGVIKAIDDDEEIRNAAELAAKHDKAVLIIGLNGEWETEGYDRENMDLPKRTNELVRAVLKANPNTVIVNQSGTPVEFPWLEDANALVQAWYGGNELGNAIADVLYGDVVPNGKLSLSWPFKLQDNPAFLNFKTEFGRVIYGEDIFVGYRYYEKLQRKVAFPFGYGLSYTTFELDISDFKVTDDKIAISVDVKNTGDKFAGSEVVQVYFSALNSKVSRPVKELKGFEKVHLEPGEKKTVNIDLELKDAISYFNEELGKWHVEAGEYLVSVGTSSDDILSVKEFKVEKELYWKGL	13.6	<3	0.9
319 (protein, Colletotrichum gloeosporioides) MTAAPSDKELLALLSQLTTAEKVLLLSGKSTWETPEIERLHVPSLKVSDGPNGARGAQFTDGTTAACFPACVSLAATFNRSLARQIGVALGEETQTKGAYVLLGPTVCPHRSPLGGRNFESFSEDPFLTGELASEYVVGLQSQRVAATVKHFAINEQDTRRFTVNETVSERAMREIYLRPFEIVVKKADPWCIMTSYPKVNGAYVDDQTTFLKDILRDEWKFKGLVMTDWGAASAAIANGIRNGLDLEMPGPPHRRQPAVVHKLIEDGKVDVKDIDDRVLPLLKLLRQTGKFTDRREPVPERAISRPEHEKLIREAGGEGVVLLKNSDGALPLKPSHLQNIAVLGPLAKHAAAHGGGSASLNCHYKISPFDAIKSRLPDSKLSYSKGAHVFRAYPDFVAGTRNRLGNPGFAADFYENLNLTGEPFYTEEYPRGSFMTLMNENVVTAKSARLSTAYSPNVSGKHYLSFSGMGPARLFINGEFQGEIKETAEAMSFLLGVQEERHLQYDFVTGKTYDIVIESTISPNPNAELYLADDQIAVHLGFVSQQEMDADVLSEAVSFAKDADVALIFVGNTPQWETEGQDMATMTLPADGSQDKLIAEVAKVNPNTIVIITTGVPVELPWLENVAAVVQAWYGGQETGNSILDVLLGEVNPSGRLPMSWPKKNEHTACYGHFGLDSWDSREVEYVEGVNVGYRHFDSQYGTEQEVMFPFGYGLSYSTFEHSACALSGTLDANDENAKITVAVTVHNTSDVAGSEVVQVYVTPPKSRTGVERPPKALVAFEKIHLNPGAQKDIQLTFKRDGAAFWSEARKLWEVEAGEHEVHVSTSSSPQDIKSTLVLGITKGFTFHP	10.2	<3	0.4
4 (protein, listed as Microbacterium azadirachtae) MTLPPFDVDTVLAALTLEEKASLLSGLDDWYTQPLDRPGLPQRVPSIEVGDGPHGLRKETGVDMVWVPATGFPTASAMGASWDRQLMRRVAAAIGEEARAEGVQVVLGPGVNMKRSPLCGRNFEYFSEDPVHSGELGAAYVDGVQAVGVGTSLKHFAANNQEIERTRISVVADERTLRETYLSAFERVVTKADPWTVMCSYNRLLGVHASQNHWLLTEVLRDEWGYRGAVVSDWNAVHDRVAALRAGLDLEMPGTQGATDAEIVAAVQDGQLDIGVVDAAARRVLELVARAYPGADRVNGAVMDLGHAAGDRLTAEQLRLLRAAEHHELAREAAIGSMTLLRNETIPGGGGPALPLEEHSEGAVAVVGAFAEHARVQGGGSSGVDPTRIDAPLAAIRAIANGRVHYAPGYIYEVKNAYQDDNLAILAAHGVVTEEEKPRVARRSATLAKELQLAEAVQHLGKRPLSAAAERLIDEAAVIAGQAETIVVFAGLPLSYEQEANDRDTLALPADQVALILRMADVREKTGARLVVVLSNGSPVTMDPWHDRVDAIVEAWLGGQAVGSAVAEVLFGRSNPSGKLAETFPLALEDTPGFPNWLGERGTVLYGEGVFIGYRWYDALRREVRYPFGHGLSYTTFSYSDLRVDLVDAEVGRVTVTCTVTNTGDVAGQEVVQLYVGDPDAEVQRPLRELRGFEKVKIEAGESTRVRFELLNRDFAYWDSAAVRPDGKTGLWRREGGEFRIEVGASSRDIRLSESIVLSDDPSIPPLVPDAELLDIAASRFVQGHAG	0.4	–	0.6
